Assay [1] addresses T1, human transferrin receptor (hTfR) (human, UniProt P02786 1-760).
T1 construct: whole, on cells; Always presented on CEF+hTfR cells; also called CEF+hTfR cells
The assay can be described thus: synthetic peptide added to CEF+hTfR cells before … phage; titer of bound phage. How it is done:
(§1) Binding and Competition Studies: Purified phage populations were amplified and were verified to be homogenous through DNA sequencing. Cells were prepared for binding as was described for biopanning procedures. Preparations of plaque-purified and titered phage (1×10¹¹) were incubated in serum-free Opti-MEM on either CEF or CEF+hTfR cells at 4° C. for 1 hour. The cells were washed repeatedly with Opti-MEM and bound phage were eluted with low pH buffer and subsequently titered. […] Multiple trials were completed and average titers and standard deviations determined. The titers determined on CEF+hTfR cells were divided by the titers determined on CEF cells and […] fold over control data points.

The target in assay [2] is T1, human transferrin receptor (hTfR). The assay can be described thus: synthetic peptide added to CEF+hTfR cells before HAIYPRH phage; titer of bound phage. How it is done: as §1

This note sets out measurements from patent publication US20080166293A1 (UAB RESEARCH FOUNDATION, published 2008).

T1 sequence (P02786 whole entry): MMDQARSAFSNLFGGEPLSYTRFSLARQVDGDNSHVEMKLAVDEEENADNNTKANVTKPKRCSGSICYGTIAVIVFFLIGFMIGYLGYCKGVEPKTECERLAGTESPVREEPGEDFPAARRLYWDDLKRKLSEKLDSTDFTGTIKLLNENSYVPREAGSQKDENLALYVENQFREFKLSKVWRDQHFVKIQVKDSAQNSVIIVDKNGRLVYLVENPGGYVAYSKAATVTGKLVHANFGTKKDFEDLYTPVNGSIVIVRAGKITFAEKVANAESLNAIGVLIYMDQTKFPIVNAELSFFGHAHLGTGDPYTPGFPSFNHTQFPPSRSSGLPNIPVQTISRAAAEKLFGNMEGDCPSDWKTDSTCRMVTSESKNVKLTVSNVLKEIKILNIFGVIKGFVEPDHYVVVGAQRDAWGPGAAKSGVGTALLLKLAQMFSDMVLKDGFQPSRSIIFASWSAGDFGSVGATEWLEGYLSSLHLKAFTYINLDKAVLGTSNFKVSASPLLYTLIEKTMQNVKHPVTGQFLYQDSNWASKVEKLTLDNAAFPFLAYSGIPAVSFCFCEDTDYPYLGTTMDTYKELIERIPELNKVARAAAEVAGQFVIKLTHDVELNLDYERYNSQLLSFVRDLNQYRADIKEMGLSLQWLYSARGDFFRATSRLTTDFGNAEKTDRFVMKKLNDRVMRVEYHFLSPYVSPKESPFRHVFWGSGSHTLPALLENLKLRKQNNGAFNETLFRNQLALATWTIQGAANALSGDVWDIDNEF

B1: THRPPMWSPVWP (Seq. ID No. 2) peptide (peptide)
peptide: THRPPMWSPVWP
notes: Synthetic peptide, HPLC purified; also called 12-mer
For the molecule B1, the binding result in assay [1] is “binds”.

B2: HAIYPRH (Seq. ID No. 1) peptide (peptide)
peptide: HAIYPRH
notes: Synthetic peptide, HPLC purified; also called 7-mer
For the molecule B2, the binding result in assay [2] is reported as “binds”.
